Laboratory results as given in publication PMC4392886 (Innate immunity, 2014).
No end group written: not given here.

Target: recombinant human TLR2 ectodomain (human, UniProt O60603 19-590, N-linked glycans, predominantly of the high-mannose type)
Assay: native gel or EMSA

Sequence of recombinant human TLR2 ectodomain (O60603 19-590): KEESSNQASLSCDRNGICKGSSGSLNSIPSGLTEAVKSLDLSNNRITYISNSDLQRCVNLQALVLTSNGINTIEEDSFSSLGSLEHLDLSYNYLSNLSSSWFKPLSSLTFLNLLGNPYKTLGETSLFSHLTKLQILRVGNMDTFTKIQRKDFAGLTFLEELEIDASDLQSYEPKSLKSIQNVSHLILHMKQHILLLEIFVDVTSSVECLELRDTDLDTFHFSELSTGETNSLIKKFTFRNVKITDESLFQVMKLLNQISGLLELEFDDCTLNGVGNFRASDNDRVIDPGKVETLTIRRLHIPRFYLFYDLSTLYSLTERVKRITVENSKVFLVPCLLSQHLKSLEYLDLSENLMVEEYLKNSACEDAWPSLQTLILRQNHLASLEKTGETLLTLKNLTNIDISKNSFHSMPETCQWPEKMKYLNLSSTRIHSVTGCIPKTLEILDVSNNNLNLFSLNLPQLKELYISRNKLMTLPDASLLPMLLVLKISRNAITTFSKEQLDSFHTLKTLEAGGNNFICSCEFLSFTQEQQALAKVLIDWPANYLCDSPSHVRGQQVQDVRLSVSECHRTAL

Binder: C(2,3‑bis‑palmitoyloxypropyl)GDPKHPKSFK-{Aca-Aca-Fluorescein} [S-(2,3-bis-palmitoyloxypropyl)-Cys-Gly-Asp-Pro-Lys-His-Pro-Lys-Ser-Phe-K-Aca-Aca-Fluorescein]
- binding result: binds
